In patent US20030165997, “Zinc finger domain libraries” (published 2003):

Columns and labels:
Assay in all cases: cell_activity; HEK 293 luciferase
Settings in all cases: tags: HA, NLS
ZFP 52 QSHR2-QSHT-RSNR = ZFP 52 QSHR2-QSHT-RSNR (Homo sapiens)
Method: (§1) The in vivo activity assay for a particular three-finger protein was carried out as follows. HEK 293 cells were transfected with four plasmids: 14 ng of a plasmid expressing the particular three-finger protein; 14 ng of the reporter plasmid described above; 70 ng of a plasmid that expresses GAL4-VP 16; and 1.4 ng of a plasmid that expresses Renillar luciferase. The GAL4-VP 16 activates transcription of the minimal synthetic promoter in the reporter so that the repression effected by a particular three-finger protein could be clearly detected and compared to other three-finger proteins. The plasmid expressing Renillar luciferase provides a control of transfection efficiency.
(§2) Lipofectamine (Gibco-BRL) was used for the transfection procedures. Cells were transfected at 30-50% confluency in wells of a 96 well plate. The cells were incubated for two days prior to harvesting for the luciferase assay. Then luciferase activities were measured using the Dual-Luciferase™ Reporter Assay System (Promega). The observed firefly luciferase activity was normalized using the observed level of Renilla luciferase. The extent of repression or “fold-repression” was calculated by dividing a value for normalized reporter expression in the absence of a zinc finger protein by a value for normalized reporter expression in the presence of the zinc finger protein.
(§3) A total of 153 three-finger chimeric proteins were constructed from both the “zinc finger protein-first” and the “target site-first” approaches. These proteins were tested using the transient cotransfection assay described in Example 68.

ZFP 39 VSTR-RSNR-QSHR2 = ZFP 39 VSTR-RSNR-QSHR2 (Homo sapiens)
Sequence of ZFP 39 VSTR-RSNR-QSHR2 (Homo sapiens) (chain, as listed by the source): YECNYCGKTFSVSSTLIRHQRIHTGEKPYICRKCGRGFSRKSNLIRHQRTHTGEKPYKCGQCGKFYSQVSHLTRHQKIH
Method: as §1, §2, §3

ZFP 65 RSNR-RDER1-RSHR = ZFP 65 RSNR-RDER1-RSHR (Homo sapiens)
Sequence of ZFP 65 RSNR-RDER1-RSHR (Homo sapiens) (chain, as listed by the source): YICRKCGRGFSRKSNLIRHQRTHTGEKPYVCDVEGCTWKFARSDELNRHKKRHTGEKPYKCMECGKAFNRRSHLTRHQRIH
Method: as §1, §2, §3

ZFP 46 HSNK-QSHT-RSNR = ZFP 46 HSNK-QSHT-RSNR (Homo sapiens)
Sequence of ZFP 46 HSNK-QSHT-RSNR (Homo sapiens) (chain, as listed by the source): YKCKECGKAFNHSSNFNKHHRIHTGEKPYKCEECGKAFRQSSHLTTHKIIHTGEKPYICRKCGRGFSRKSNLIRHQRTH
Method: as §1, §2, §3

ZFP 58 VSNV-QSHR2-VSTR = ZFP 58 VSNV-QSHR2-VSTR (Homo sapiens)
Sequence of ZFP 58 VSNV-QSHR2-VSTR (Homo sapiens) (chain, as listed by the source): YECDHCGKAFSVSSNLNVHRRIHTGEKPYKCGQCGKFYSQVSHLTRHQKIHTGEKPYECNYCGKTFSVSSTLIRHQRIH
Method: as §1, §2, §3

ZFP 35 VSSR-QSHT-RSHR = ZFP 35 VSSR-QSHT-RSHR (Homo sapiens)
Sequence of ZFP 35 VSSR-QSHT-RSHR (Homo sapiens) (chain, as listed by the source): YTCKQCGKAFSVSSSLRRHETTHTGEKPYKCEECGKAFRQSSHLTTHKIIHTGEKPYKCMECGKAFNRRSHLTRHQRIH
Method: as §1, §2, §3

ZFP 42 RDHT-QSHR2-QSHT = ZFP 42 RDHT-QSHR2-QSHT (Homo sapiens)
Sequence of ZFP 42 RDHT-QSHR2-QSHT (Homo sapiens) (chain, as listed by the source): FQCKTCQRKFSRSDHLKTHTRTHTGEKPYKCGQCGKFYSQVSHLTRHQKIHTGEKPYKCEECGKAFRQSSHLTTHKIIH
Method: as §1, §2, §3

ZFP 36 RSNR-VSSR-RSNR = ZFP 36 RSNR-VSSR-RSNR (Homo sapiens)
Sequence of ZFP 36 RSNR-VSSR-RSNR (Homo sapiens) (chain, as listed by the source): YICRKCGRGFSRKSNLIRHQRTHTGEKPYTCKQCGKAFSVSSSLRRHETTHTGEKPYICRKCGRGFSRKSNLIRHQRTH
Method: as §1, §2, §3

ZFP 64 VSSR-RSHR-ISNR = ZFP 64 VSSR-RSHR-ISNR (Homo sapiens)
Sequence of ZFP 64 VSSR-RSHR-ISNR (Homo sapiens) (chain, as listed by the source): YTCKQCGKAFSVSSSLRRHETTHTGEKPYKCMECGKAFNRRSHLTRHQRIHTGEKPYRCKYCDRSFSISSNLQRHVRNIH
Method: as §1, §2, §3

ZFP 55 QSNV2-QSHR2-QSNR3 = ZFP 55 QSNV2-QSHR2-QSNR3 (Homo sapiens)
Sequence of ZFP 55 QSNV2-QSHR2-QSNR3 (Homo sapiens) (chain, as listed by the source): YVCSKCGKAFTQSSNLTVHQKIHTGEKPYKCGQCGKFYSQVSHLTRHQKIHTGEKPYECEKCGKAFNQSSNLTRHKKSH
Method: as §1, §2, §3

ZFP 57 QSHR2-CSNR1-QSHT = ZFP 57 QSHR2-CSNR1-QSHT (Homo sapiens)
Sequence of ZFP 57 QSHR2-CSNR1-QSHT (Homo sapiens) (chain, as listed by the source): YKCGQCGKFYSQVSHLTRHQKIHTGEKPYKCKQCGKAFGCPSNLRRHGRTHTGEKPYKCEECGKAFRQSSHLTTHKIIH
Method: as §1, §2, §3

ZFP 53 QSHR2-RDHT-CSNR1 = ZFP 53 QSHR2-RDHT-CSNR1 (Homo sapiens)
Sequence of ZFP 53 QSHR2-RDHT-CSNR1 (Homo sapiens) (chain, as listed by the source): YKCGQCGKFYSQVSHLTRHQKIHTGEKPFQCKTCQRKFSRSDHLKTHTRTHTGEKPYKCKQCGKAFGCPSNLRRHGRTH
Method: as §1, §2, §3

ZFP 56 RSNR-VSTR-RSHR = ZFP 56 RSNR-VSTR-RSHR (Homo sapiens)
Sequence of ZFP 56 RSNR-VSTR-RSHR (Homo sapiens) (chain, as listed by the source): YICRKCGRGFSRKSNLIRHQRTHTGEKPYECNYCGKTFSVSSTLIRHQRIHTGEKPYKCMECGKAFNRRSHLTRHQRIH
Method: as §1, §2, §3

ZFP 60 QSNR3-QSSR1-QSNV2 = ZFP 60 QSNR3-QSSR1-QSNV2 (Homo sapiens)
Sequence of ZFP 60 QSNR3-QSSR1-QSNV2 (Homo sapiens) (chain, as listed by the source): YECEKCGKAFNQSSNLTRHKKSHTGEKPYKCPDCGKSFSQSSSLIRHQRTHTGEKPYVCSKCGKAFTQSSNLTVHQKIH
Method: as §1, §2, §3

ZFP 43 QSSR1-QSNR3-QSHR2 = ZFP 43 QSSR1-QSNR3-QSHR2 (Homo sapiens)
Sequence of ZFP 43 QSSR1-QSNR3-QSHR2 (Homo sapiens) (chain, as listed by the source): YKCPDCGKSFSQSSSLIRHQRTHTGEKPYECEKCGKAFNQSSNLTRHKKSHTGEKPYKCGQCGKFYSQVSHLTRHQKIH
Method: as §1, §2, §3

ZFP 62 RDER1-QSSR1-VSTR = ZFP 62 RDER1-QSSR1-VSTR (Homo sapiens)
Sequence of ZFP 62 RDER1-QSSR1-VSTR (Homo sapiens) (chain, as listed by the source): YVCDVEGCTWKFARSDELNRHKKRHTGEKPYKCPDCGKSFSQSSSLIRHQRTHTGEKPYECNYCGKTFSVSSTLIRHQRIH
Method: as §1, §2, §3

ZFP 41 QSNR3-RSNR-RSHR = ZFP 41 QSNR3-RSNR-RSHR (Homo sapiens)
Sequence of ZFP 41 QSNR3-RSNR-RSHR (Homo sapiens) (chain, as listed by the source): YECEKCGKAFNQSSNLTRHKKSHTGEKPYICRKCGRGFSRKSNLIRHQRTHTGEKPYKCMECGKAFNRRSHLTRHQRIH
Method: as §1, §2, §3

ZFP 45 HSNK-QSNV2-VSSR = ZFP 45 HSNK-QSNV2-VSSR (Homo sapiens)
Sequence of ZFP 45 HSNK-QSNV2-VSSR (Homo sapiens) (chain, as listed by the source): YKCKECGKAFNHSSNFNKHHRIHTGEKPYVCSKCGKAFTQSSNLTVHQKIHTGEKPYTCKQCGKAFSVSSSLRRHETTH
Method: as §1, §2, §3

ZFP 51 VSNV-QSNV2-QSHT = ZFP 51 VSNV-QSNV2-QSHT (Homo sapiens)
Sequence of ZFP 51 VSNV-QSNV2-QSHT (Homo sapiens) (chain, as listed by the source): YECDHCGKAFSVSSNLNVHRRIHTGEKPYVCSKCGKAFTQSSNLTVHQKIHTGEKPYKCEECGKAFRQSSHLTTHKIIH
Method: as §1, §2, §3

ZFP 49 RSHR-QSNV2-QSHT = ZFP 49 RSHR-QSNV2-QSHT (Homo sapiens)
Sequence of ZFP 49 RSHR-QSNV2-QSHT (Homo sapiens) (chain, as listed by the source): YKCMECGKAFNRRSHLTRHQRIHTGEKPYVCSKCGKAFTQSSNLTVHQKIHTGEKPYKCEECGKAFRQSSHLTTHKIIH
Method: as §1, §2, §3

ZFP 48 RDHT-RSHR-RDER1 = ZFP 48 RDHT-RSHR-RDER1 (Homo sapiens)
Sequence of ZFP 48 RDHT-RSHR-RDER1 (Homo sapiens) (chain, as listed by the source): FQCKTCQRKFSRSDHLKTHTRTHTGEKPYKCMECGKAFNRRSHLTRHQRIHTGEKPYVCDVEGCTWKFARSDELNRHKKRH
Method: as §1, §2, §3

ZFP 47 RSHR-QSHR2-VSTR = ZFP 47 RSHR-QSHR2-VSTR (Homo sapiens)
Sequence of ZFP 47 RSHR-QSHR2-VSTR (Homo sapiens) (chain, as listed by the source): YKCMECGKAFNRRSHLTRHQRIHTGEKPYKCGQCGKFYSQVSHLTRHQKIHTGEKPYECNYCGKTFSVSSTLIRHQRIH
Method: as §1, §2, §3

ZFP 50 RSHR-RDER1-QSNV2 = ZFP 50 RSHR-RDER1-QSNV2 (Homo sapiens)
Sequence of ZFP 50 RSHR-RDER1-QSNV2 (Homo sapiens) (chain, as listed by the source): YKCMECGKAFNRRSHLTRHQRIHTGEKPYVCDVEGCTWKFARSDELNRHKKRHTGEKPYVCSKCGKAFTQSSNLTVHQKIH
Method: as §1, §2, §3

Sequence of ZFP 52 QSHR2-QSHT-RSNR (Homo sapiens) (chain, as listed by the source): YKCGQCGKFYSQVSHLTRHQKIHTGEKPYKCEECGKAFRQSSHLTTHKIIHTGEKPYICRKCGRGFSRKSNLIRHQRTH

B1: target 52 (dsDNA)
DNA 1: GAGTGAGGA
DNA 2: TCCTCACTC
ZFP 52 QSHR2-QSHT-RSNR
  activity: 1.6 fold repression

B2: target 39 (dsDNA)
DNA 1: GGAGAGGCTC
DNA 2: GAGCCTCTCC
ZFP 39 VSTR-RSNR-QSHR2
  activity: 1.8 fold repression

B3: target 65 (dsDNA)
DNA 1: GGGGCGGAG
DNA 2: CTCCGCCCC
ZFP 65 RSNR-RDER1-RSHR
  activity: 1.5 fold repression

B4: target 46 (dsDNA)
DNA 1: GAGAGAGAC
DNA 2: GTCTCTCTC
ZFP 46 HSNK-QSHT-RSNR
  activity: 1.7 fold repression

B5: target 58 (dsDNA)
DNA 1: GCTGGAAATT
DNA 2: AATTTCCAGC
ZFP 58 VSNV-QSHR2-VSTR
  activity: 1.5 fold repression

B6: target 35 (dsDNA)
DNA 1: GGGTGAGTG
DNA 2: CACTCACCC
ZFP 35 VSSR-QSHT-RSHR
  activity: 1.9 fold repression

B7: target 42 (dsDNA)
DNA 1: AGAGGAAGGT
DNA 2: ACCTTCCTCT
ZFP 42 RDHT-QSHR2-QSHT
  activity: 1.7 fold repression

B8: target 36 (dsDNA)
DNA 1: GAGGTTGAGG
DNA 2: CCTCAACCTC
ZFP 36 RSNR-VSSR-RSNR
  activity: 1.8 fold repression

B9: target 64 (dsDNA)
DNA 1: GATGGGGTTT
DNA 2: AAACCCCATC
ZFP 64 VSSR-RSHR-ISNR
  activity: 1.5 fold repression

B10: target 55 (dsDNA)
DNA 1: GAAGGAAAAT
DNA 2: ATTTTCCTTC
ZFP 55 QSNV2-QSHR2-QSNR3
  activity: 1.6 fold repression

B11: target 57 (dsDNA)
DNA 1: TGAGACGGAG
DNA 2: CTCCGTCTCA
ZFP 57 QSHR2-CSNR1-QSHT
  activity: 1.5 fold repression

B12: target 53 (dsDNA)
DNA 1: GACAGGGGAG
DNA 2: CTCCCCTGTC
ZFP 53 QSHR2-RDHT-CSNR1
  activity: 1.6 fold repression

B13: target 56 (dsDNA)
DNA 1: GGGGCTGAGG
DNA 2: CCTCAGCCCC
ZFP 56 RSNR-VSTR-RSHR
  activity: 1.5 fold repression

B14: target 60 (dsDNA)
DNA 1: CAAGTAGAAG
DNA 2: CTTCTACTTG
ZFP 60 QSNR3-QSSR1-QSNV2
  activity: 1.5 fold repression

B15: target 43 (dsDNA)
DNA 1: GGAGAAGTAG
DNA 2: CTACTTCTCC
ZFP 43 QSSR1-QSNR3-QSHR2
  activity: 1.7 fold repression

B16: target 62 (dsDNA)
DNA 1: GCTGCAGCGT
DNA 2: ACGCTGCAGC
ZFP 62 RDER1-QSSR1-VSTR
  activity: 1.5 fold repression

B17: target 41 (dsDNA)
DNA 1: GGGGAGGAAA
DNA 2: TTTCCTCCCC
ZFP 41 QSNR3-RSNR-RSHR
  activity: 1.7 fold repression

B18: target 45 (dsDNA)
DNA 1: GTTCAAGAC
DNA 2: GTCTTGAAC
ZFP 45 HSNK-QSNV2-VSSR
  activity: 1.7 fold repression

B19: target 51 (dsDNA)
DNA 1: AGAAAAAATA
DNA 2: TATTTTTTCT
ZFP 51 VSNV-QSNV2-QSHT
  activity: 1.6 fold repression

B20: target 49 (dsDNA)
DNA 1: AGAAAAGGG
DNA 2: CCCTTTTCT
ZFP 49 RSHR-QSNV2-QSHT
  activity: 1.6 fold repression

B21: target 48 (dsDNA)
DNA 1: GCGGGGAGGG
DNA 2: CCCTCCCCGC
ZFP 48 RDHT-RSHR-RDER1
  activity: 1.6 fold repression

B22: target 47 (dsDNA)
DNA 1: GCTGGAGGGG
DNA 2: CCCCTCCAGC
ZFP 47 RSHR-QSHR2-VSTR
  activity: 1.7 fold repression

B23: target 50 (dsDNA)
DNA 1: AAAGTGGGGA
DNA 2: TCCCCACTTT
ZFP 50 RSHR-RDER1-QSNV2
  activity: 1.6 fold repression
